Measured values taken from patent US20250163169A1, “ANTIBODIES FOR PREVENTING THE CLEAVAGE OF CD95L BY METALLOPROTEASES” (INSTITUT NATIONAL DE LA SANTÉ ET DE LA RECHERCHE MÉDICALE, priority 2022, published 2025).

What was measured:
CD95L cleavage by MMP3 = assay: Cleavage of recombinant Ig-CD95L by MMP3 in vitro, cleaved fragment monitored by immunoblotting; type: biochemical, Homo sapiens; conditions: Ig-CD95L 100 ng pre-incubated 15 min with antibody (100 pg/mL), then MMP 1 h
Method: (§1) FIG. 2. Monoclonal antibodies targeting the Metalloprotease-Cleavage Sites of CD95L (MCSCs). A. Left panel: The extracellular region of CD95L encompassing amino acid residues 102 to 281 can be cleaved by metalloproteases at different sites. Arrows represent putative cleavage site in CD95L sequence. Right panel: Using three peptides (peptides 1, 2 and 3) covering most of the MCSCs of CD95L, we have generated monoclonal antibodies. Indicated peptides were injected in mice to generate monoclonal antibodies and three different hybridoma were selected regarding their ability to bind CD95L. According to their affinity for the indicated peptides (assessed using ELISA), the 3C7 epitope should cover the […] sequence (SEQ ID NO:24). […] The metalloprotease-cleaved fragment of Ig-CD95L (CD95L devoid of its released Ig domain of gp190) was monitored by immunoblotting. […] CD95L-expressing leukemic T cell 1A12 was incubated for 24 h with indicated antibodies ([…]) or the pan-MMP inhibitor GM6001 (10 μM) and the expression level of membrane-bound CD95L was assessed by flow cytometry. […]
(§2) We have generated different extracellular regions of CD95L fused to large domains including the Ig domain of the gp190 (LIF receptor). […] The privileged cleavage sites (^113EL^114 for MMPs and ^129KQ^130 for ADAM) were then determined from MS/MS sequencing of the resulting cleavage products. […]

CD95L cleavage by MMP2 = assay: Cleavage of recombinant Ig-CD95L by MMP2 in vitro, cleaved fragment monitored by immunoblotting; type: biochemical, Homo sapiens; conditions: Ig-CD95L 100 ng pre-incubated 15 min with antibody (100 pg/mL), then MMP 1 h
Method: as §1, §2

[1] = test system: CD95L-expressing leukemic T cell 1A12; assay: Expression level of membrane-bound CD95L on 1A12 cells by flow cytometry; type: cell-based; conditions: 24 h, antibodies 10 pg/mL, GM6001 10 μM
Method: (§3) FIG. 2. Monoclonal antibodies targeting the Metalloprotease-Cleavage Sites of CD95L (MCSCs). […] Arrows represent putative cleavage site in CD95L sequence. […] Indicated peptides were injected in mice to generate monoclonal antibodies and three different hybridoma were selected regarding their ability to bind CD95L. […] B. Recombinant Ig-CD95L (100 ng) was pre-incubated for 15 min with indicated antibodies (100 pg/mL) and then treated for 1h with the indicated MMPs. The metalloprotease-cleaved fragment of Ig-CD95L (CD95L devoid of its released Ig domain of gp190) was monitored by immunoblotting. C. CD95L-expressing leukemic T cell 1A12 was incubated for 24 h with indicated antibodies ([…]) or the pan-MMP inhibitor GM6001 (10 μM) and the expression level of membrane-bound CD95L was assessed by flow cytometry. D. Supernatants were harvested from cells treated in C and the metalloprotease-cleaved CD95L was dosed by ELISA (Diaclone).

Jurkat cells = assay: Jurkat cell death induced by mAb-pre-treated 1A12 cells, drop of mitochondrial transmembrane potential (DIOC6); type: cell-based; conditions: 1A12 cells pre-treated 24 hours with 10 μg/mL mAb, then 4 hours with Jurkat cells
Method: (§4) FIG. 3. Antibody targeting the Metalloprotease-Cleavage Sites of CD95L (MCSCs) blocks the non-apoptotic functions of CD95L without affecting its apoptotic ones. A. WR19L (CD95L−) or 1A12 (CD95L+) cells were placed in the lower chamber of a Boyden chamber assay in the presence of the indicated mAbs ([…]). Triple negative breast cancer cell MDA-MB-231 was added to the upper part of the chamber and cell migration due to the gradient of metalloprotease-cleaved CD95L was evaluated after 24 hours by fixing and staining (Giemsa) migrating cells covering the lower side of the porous membrane. Left panel: Pictures of the Giemsa-stained MDA-MB-231 cells that migrated to the lower side of the membrane in the presence of WR19L (CD95L−) or 1A12 (CD95L+) cells and with isotypic (9E10) or anti-MCSC (3C7) monoclonal antibody. Right panel: Giemsa-stained MDA-MB-231 cells were lysed and absorbance was measured at a wavelength of 560 nm. Values represent the means and SEM of three independently performed experiments. **p<0.01 as calculated using two-tailed Mann-Whitney test. B. Upper panel: Jurkat cells are sensitive to the CD95-mediated apoptotic signal. […] Cell death was monitored by measuring the drop of mitochondrial transmembrane potential (Δψm). […] Cell death was monitored by measuring the drop of mitochondrial transmembrane potential (Δψm). […]

[2] = test system: s-CD95L release from 1A12 cells; assay: Metalloprotease-cleaved CD95L dosed by ELISA in supernatants of 1A12 cells; type: cell-based; conditions: 1A12 cells treated 24 hours, vs isotype (anti-myc 9E10 mAb) control
Method: as §3

[3] = test system: triple negative breast cancer cells MDA-MB-231; assay: Boyden chamber assay, migration of MDA-MB-231 cells towards 1A12 (CD95L+) cells; type: cell-based; conditions: 1A12 (CD95L+) cells in lower chamber, mAb 10 pg/mL, 24 hours
Method: as §4

Sequence of CD95L cleavage by MMP2 (P48023 103-281 limits assumed): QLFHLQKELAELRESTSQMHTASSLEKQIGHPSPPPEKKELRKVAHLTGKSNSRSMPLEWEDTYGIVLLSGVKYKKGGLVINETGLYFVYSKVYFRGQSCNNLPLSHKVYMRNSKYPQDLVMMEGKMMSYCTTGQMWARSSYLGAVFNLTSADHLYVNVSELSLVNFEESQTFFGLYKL
Sequence of CD95L cleavage by MMP3 (P48023 103-281 limits assumed): as above

| Molecule | Cleavage of CD95L by MMP3 in vitro (CD95L cleavage by MMP3) | Cleavage of CD95L by MMP2 in vitro (CD95L cleavage by MMP2) | Expression level of membrane-bound CD95L [1] | Apoptotic function of membrane-bound CD95L (Jurkat cells) | Concentrations of s-CD95L in supernatant [2] | Generation of s-CD95L promoting migration of MDA-MB-231 cells [3] |
| --- | --- | --- | --- | --- | --- | --- |
| 9F5: Monoclonal antibody targeting Metalloprotease-Cleavage Sites of CD95L; light chain SEQ ID NO:18, heavy chain SEQ ID NO:19 (antibody, listed as Mus musculus, V domains shown) VH: QVQLQQSGAELAKPGASVKMSCKASGYTFTTYWMHWVKQRPGQDLEWIGYINPRNGYTEYNQNFKDKATLTADKSSTTAFMQLSSLTSEDSALYYCAVDLGYWGQGTLVTVSA VL: DIVMTQSPSSLAMSVGQKVTMNCKSSQSLLSSRNQKTYLAWYQQKPGQSPKLLVYFTSTRASGVPDRFIGSGGTDFTLTISSVQAEDLALYYCQQHYNTPWTFGGGTKLEIK | efficiently abrogated the cleavage | efficiently abrogated the cleavage | did not alter |  |  |  |
| 3C7: Monoclonal antibody targeting Metalloprotease-Cleavage Sites of CD95L; light chain SEQ ID NO:16, heavy chain SEQ ID NO:17 (antibody, listed as Mus musculus, V domains shown) VH: QVQLQQSGAELAKPGASVKMSCKTSGYTFTSYWMHWVKQRPGQGLEWIGYINPNTGYTEYIQRFRDKATLTADKSSGTAYMQLSSLTSEDSAVYYCAVDLGYWGQGTLVTVSA VL: DIVMTQSPSSLAMSVGQKVTMSCKSSQSLLSSRTQKHYLAWYQQKPGQSPKLLVYFTSTRESGVPDRFIGSGSGTDFTLTISSVQAEDLALYYCKQHYNTPWTFGGGTKLEIK | efficiently abrogated the cleavage | efficiently abrogated the cleavage | augmentation of m-CD95L similar to that observed with the broad spectrum MMP inhibitor GM6001 | did not prevent the apoptotic function | significantly reduced | inhibited |
